# Measurements taken from the supplement of paper PMC10567573.
# B1: DYRK1B (parent)
# chain: KKVLNHGYDDDNHDYIVRSGERWL
# Variants of: B1
# Assay: protein stability index of a GFP-peptide fusion (GPS, HEK-293T) (PSI 1-6); higher = more stable
# Conditions: c terminus: a fixed tail appended
# 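Note: lentivirally expressed fusions sorted by FACS into six bins by GFP to DsRed ratio, PSI derived from sequencing read proportions per bin multiplied by bin number.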
row,Variant,protein stability index
1,KKVLNHGYDDDNHDYHVRSGERWL,3.23
2,KKVLNHGYDDDNHDYTVRSGERWL,3.47
3,KKVLNHGYDDDNHDYPVRSGERWL,3.55
4,KKVLNHGYDDDNHDYRVRSGERWL,3.49
5,KKVLNHGYDDDNHDYFVRSGERWL,3.09
6,KKVLNHGYDDDNHDYGVRSGERWL,3.71
7,KKVLNHGYDDDNHDYAVRSGERWL,3.73
8,KKVLNHGYDDDNHDYEVRSGERWL,4.17
9,KKVLNHGYDDDNHDYYVRSGERWL,3.89
10,KKVLNHGYDDDNHDYWVRSGERWL,2.71
11,KKVLNHGYDDDNHDYVVRSGERWL,3.86
12,KKVLNHGYDDDNHDYDVRSGERWL,3.84
13,KKVLNHGYDDDNHDYSVRSGERWL,3.68
14,KKVLNHGYDDDNHDYNVRSGERWL,3.24
15,KKVLNHGYDDDNHDYQVRSGERWL,3.58
16,KKVLNHGYDDDNHDYCVRSGERWL,3.48
17,KKVLNHGYDDDNHDYKVRSGERWL,3.49
18,KKVLNHGYDDDNHDYLVRSGERWL,3.09
19,KKVLNHGYDDDNHDYMVRSGERWL,3.32
20,KKVLNHGYDDDNHDYIVRKGERWL,3.2
21,KKVLNHGYDDDNHDYIVRGGERWL,3.25
22,KKVLNHGYDDDNHDYIVRCGERWL,2.59
23,KKVLNHGYDDDNHDYIVRFGERWL,2.29
24,KKVLNHGYDDDNHDYIVRYGERWL,2.53

row,Variant,protein stability index
1,KKVLNHGYDDDNHDYIVRNGERWL,3.22
2,KKVLNHGYDDDNHDYIVRQGERWL,3.46
3,KKVLNHGYDDDNHDYIVRPGERWL,2.51
4,KKVLNHGYDDDNHDYIVREGERWL,3.25
5,KKVLNHGYDDDNHDYIVRVGERWL,2.98
6,KKVLNHGYDDDNHDYIVRWGERWL,2.21
7,KKVLNHGYDDDNHDYIVRLGERWL,2.42
8,KKVLNHGYDDDNHDYIVRAGERWL,3.57
9,KKVLNHGYDDDNHDYIVRIGERWL,2.07
10,KKVLNHGYDDDNHDYIVRRGERWL,2.78
11,KKVLNHGYDDDNHDYIVRTGERWL,3.06
12,KKVLNHGYDDDNHDYIVRMGERWL,2.6
13,KKVLNHGYDDDNHDYIVRHGERWL,3.91
14,KKVLNHGYDDDNHDYIVRDGERWL,3.64
15,KKVLNHGYDDYNHDYIVRSGERWL,2.48
16,KKVLNHGYDDTNHDYIVRSGERWL,2.75
17,KKVLNHGYDDWNHDYIVRSGERWL,2.02
18,KKVLNHGYDDVNHDYIVRSGERWL,2.54
19,KKVLNHGYDDDNHMYIVRSGERWL,2.58
20,KKVLNHGYDDDNHGYIVRSGERWL,2.71
21,KKVLNHGYDDDNHHYIVRSGERWL,3.03
22,KKVLNHGYDDDNHEYIVRSGERWL,3.03
23,KKVLNHGYDDDNHYYIVRSGERWL,2.55
24,KKVLNHGYDDDNHIYIVRSGERWL,2.37

row,Variant,protein stability index
1,KKVLNHGYDDDNHPYIVRSGERWL,2.71
2,KKVLNHGYDDDNHQYIVRSGERWL,2.35
3,KKVLNHGYDDDNHSYIVRSGERWL,2.82
4,KKVLNHGYDDDNHWYIVRSGERWL,1.85
5,KKVLNHGYDDDNHVYIVRSGERWL,2.13
6,KKVLNHGYDDDNHRYIVRSGERWL,2.86
7,KKVLNHGYDDDNHKYIVRSGERWL,3
8,KKVLNHGYDDDNHNYIVRSGERWL,3.12
9,KKVLNHGYDDDNHLYIVRSGERWL,1.67
10,KKVLNHGYDDDNHCYIVRSGERWL,2.64
11,KKVLNHGYDDDNHTYIVRSGERWL,2.79
12,KKVLNHGYDDDNHFYIVRSGERWL,2.21
13,KKVLNHGYDDDNHAYIVRSGERWL,2.78
14,KKVLNHGYDDDNHDYIVRSGPRWL,2.61
15,KKVLNHGYDDDNHDYIVRSGDRWL,2.86
16,KKVLNHGYDDDNHDYIVRSGCRWL,2.19
17,KKVLNHGYDDDNHDYIVRSGHRWL,2.4
18,KKVLNHGYDDDNHDYIVRSGLRWL,3.02
19,KKVLNHGYDDDNHDYIVRSGKRWL,3.1
20,KKVLNHGYDDDNHDYIVRSGQRWL,3.05
21,KKVLNHGYDDDNHDYIVRSGNRWL,2.67
22,KKVLNHGYDDDNHDYIVRSGARWL,2.97
23,KKVLNHGYDDDNHDYIVRSGMRWL,2.57
24,KKVLNHGYDDDNHDYIVRSGGRWL,2.57

row,Variant,protein stability index
1,KKVLNHGYDDDNHDYIVRSGIRWL,2.16
2,KKVLNHGYDDDNHDYIVRSGFRWL,2.16
3,KKVLNHGYDDDRHDYIVRSGERWL,3.27
4,KKVLNHGYDDDLHDYIVRSGERWL,2.3
5,KKVLNHGYDDDVHDYIVRSGERWL,2.64
6,KKVLNHGYDDDHHDYIVRSGERWL,2.65
7,KKVLNHGYDDDKHDYIVRSGERWL,3.05
8,KKVLNHGYDDDEHDYIVRSGERWL,3.36
9,KKVLNHGYDDDSHDYIVRSGERWL,3.01
10,KKVLNHGYDDDGHDYIVRSGERWL,2.81
11,KKVLNHGYDDDPHDYIVRSGERWL,2.78
12,KKVLNHGYDDDDHDYIVRSGERWL,3.4
13,KKVLNHGYDDDWHDYIVRSGERWL,2.01
14,KKVLNHGYDDDQHDYIVRSGERWL,3.48
15,KKVLNHGYDDDMHDYIVRSGERWL,2.29
16,KKVLNHGYDDDTHDYIVRSGERWL,2.62
17,KKVLNHGYDDDYHDYIVRSGERWL,2.17
18,KKVLNHGYDDDFHDYIVRSGERWL,2.35
19,KKVLNHGYDDDIHDYIVRSGERWL,2.47
20,KKVLNHGYDDDAHDYIVRSGERWL,2.7
21,KKVLNHGYDDDCHDYIVRSGERWL,2.67
22,KKVLNHGYDDDNHDYIYRSGERWL,2.94
23,KKVLNHGYDDDNHDYIIRSGERWL,2.55
24,KKVLNHGYDDDNHDYITRSGERWL,2.97

row,Variant,protein stability index
1,KKVLNHGYDDDNHDYILRSGERWL,3.07
2,KKVLNHGYDDDNHDYIRRSGERWL,3.53
3,KKVLNHGYDDDNHDYIMRSGERWL,2.98
4,KKVLNHGYDDDNHDYIFRSGERWL,2.74
5,KKVLNHGYDDDNHDYIQRSGERWL,3.57
6,KKVLNHGYDDDNHDYINRSGERWL,3.65
7,KKVLNHGYDDDNHDYIGRSGERWL,3.36
8,KKVLNHGYDDDNHDYIDRSGERWL,3.56
9,KKVLNHGYDDDNHDYIARSGERWL,3.11
10,KKVLNHGYDDDNHDYIPRSGERWL,3.86
11,KKVLNHGYDDDNHDYIWRSGERWL,2.56
12,KKVLNHGYDDDNHDYICRSGERWL,2.6
13,KKVLNHGYDDDNHDYISRSGERWL,3.36
14,KKVLNHGYDDDNHDYIKRSGERWL,3.4
15,KKVLNHGYDDDNHDYIERSGERWL,4.03
16,KKVLNHGYDDDNHDYIHRSGERWL,3.46
17,KKVLNHGYDDDNHDYIVRSTERWL,2.83
18,KKVLNHGYDDDNHDYIVRSFERWL,2.04
19,KKVLNHGYDDDNHDYIVRSHERWL,2.67
20,KKVLNHGYDDDNHDYIVRSDERWL,3.22
21,KKVLNHGYDDDNHDYIVRSKERWL,3.32
22,KKVLNHGYDDDNHDYIVRSNERWL,3.29
23,KKVLNHGYDDDNHDYIVRSIERWL,2.73
24,KKVLNHGYDDDNHDYIVRSYERWL,2.23

row,Variant,protein stability index
1,KKVLNHGYDDDNHDYIVRSSERWL,3.01
2,KKVLNHGYDDDNHDYIVRSQERWL,3.34
3,KKVLNHGYDDDNHDYIVRSWERWL,2.31
4,KKVLNHGYDDDNHDYIVRSEERWL,3.65
5,KKVLNHGYDDDNHDYIVRSLERWL,1.88
6,KKVLNHGYDDDNHDYIVRSCERWL,2.95
7,KKVLNHGYDDDNHDYIVRSMERWL,2.13
8,KKVLNHGYDDDNHDYIVRSVERWL,2.03
9,KKVLNHGYDDDNHDYIVRSPERWL,3.2
10,KKVLNHGYDDDNHDYIVRSAERWL,2.73
11,KKVLNHGYDDDNHDYIVRSRERWL,3.54
12,KKVLNHGYDDDNHDYIVASGERWL,3
13,KKVLNHGYDDDNHDYIVPSGERWL,3.24
14,KKVLNHGYDDDNHDYIVESGERWL,3.75
15,KKVLNHGYDDDNHDYIVKSGERWL,3.74
16,KKVLNHGYDDDNHDYIVQSGERWL,3.78
17,KKVLNHGYDDDNHDYIVYSGERWL,2.48
18,KKVLNHGYDDDNHDYIVGSGERWL,3.45
19,KKVLNHGYDDDNHDYIVISGERWL,2.62
20,KKVLNHGYDDDNHDYIVSSGERWL,3.1
21,KKVLNHGYDDDNHDYIVHSGERWL,3.4
22,KKVLNHGYDDDNHDYIVVSGERWL,2.67
23,KKVLNHGYDDDNHDYIVLSGERWL,2.39
24,KKVLNHGYDDDNHDYIVMSGERWL,2.39

row,Variant,protein stability index
1,KKVLNHGYDDDNHDYIVFSGERWL,2.39
2,KKVLNHGYDDDNHDYIVWSGERWL,2.38
3,KKVLNHGYDDDNHDYIVTSGERWL,2.92
4,KKVLNHGYDDDNHDYIVDSGERWL,3.78
5,KKVLNHGYDDDNHDYIVNSGERWL,2.9
6,KKVLNHGYDDDNHDYIVCSGERWL,2.82
7,KKVLNHGYDDDNHDQIVRSGERWL,4.05
8,KKVLNHGYDDDNHDKIVRSGERWL,3.56
9,KKVLNHGYDDDNHDMIVRSGERWL,3.27
10,KKVLNHGYDDDNHDHIVRSGERWL,3.42
11,KKVLNHGYDDDNHDGIVRSGERWL,3.82
12,KKVLNHGYDDDNHDFIVRSGERWL,3.09
13,KKVLNHGYDDDNHDWIVRSGERWL,3.07
14,KKVLNHGYDDDNHDAIVRSGERWL,3.79
15,KKVLNHGYDDDNHDNIVRSGERWL,3.88
16,KKVLNHGYDDDNHDRIVRSGERWL,3.72
17,KKVLNHGYDDDNHDTIVRSGERWL,2.95
18,KKVLNHGYDDDNHDEIVRSGERWL,4.02
19,KKVLNHGYDDDNHDLIVRSGERWL,3.05
20,KKVLNHGYDDDNHDPIVRSGERWL,3.6
21,KKVLNHGYDDDNHDSIVRSGERWL,3.32
22,KKVLNHGYDDDNHDCIVRSGERWL,3.58
23,KKVLNHGYDDDNHDIIVRSGERWL,3.5
24,KKVLNHGYDDDNHDDIVRSGERWL,4.19

row,Variant,protein stability index
1,KKVLNHGYDDDNHDVIVRSGERWL,3.38
2,KKVLNHGYDDDNNDYIVRSGERWL,3.07
3,KKVLNHGYDDDNRDYIVRSGERWL,3.77
4,KKVLNHGYDDDNDDYIVRSGERWL,3.73
5,KKVLNHGYDDDNCDYIVRSGERWL,2.54
6,KKVLNHGYDDDNTDYIVRSGERWL,3.35
7,KKVLNHGYDDDNLDYIVRSGERWL,2.59
8,KKVLNHGYDDDNFDYIVRSGERWL,1.95
9,KKVLNHGYDDDNVDYIVRSGERWL,2.96
10,KKVLNHGYDDDNKDYIVRSGERWL,3.59
11,KKVLNHGYDDDNSDYIVRSGERWL,3.42
12,KKVLNHGYDDDNGDYIVRSGERWL,3.27
13,KKVLNHGYDDDNMDYIVRSGERWL,2.58
14,KKVLNHGYDDDNIDYIVRSGERWL,2.79
15,KKVLNHGYDDDNYDYIVRSGERWL,2.64
16,KKVLNHGYDDDNWDYIVRSGERWL,2.44
17,KKVLNHGYDDDNQDYIVRSGERWL,3.68
18,KKVLNHGYDDDNPDYIVRSGERWL,3.57
19,KKVLNHGYDDDNADYIVRSGERWL,3.06
20,KKVLNHGYDDDNEDYIVRSGERWL,4.24
